Measured values as given in US20220340678A1 (MURAL ONCOLOGY, published 2022).
One block for each binder: values may come before it.

Experiments:
[1] = target: T1, Recombinant mouse uPAR-Fc (R&D Systems, Cat. No. 531-PA-100) (mouse, UniProt P35456 24-297, limits assumed); experiment: SPR (Biacore), mouse uPAR-Fc captured on anti-human antibody chip
T1 construct: not shown: Fc of the bought fusion (captured with the human antibody capture kit); not described
T1 sequence (looked up): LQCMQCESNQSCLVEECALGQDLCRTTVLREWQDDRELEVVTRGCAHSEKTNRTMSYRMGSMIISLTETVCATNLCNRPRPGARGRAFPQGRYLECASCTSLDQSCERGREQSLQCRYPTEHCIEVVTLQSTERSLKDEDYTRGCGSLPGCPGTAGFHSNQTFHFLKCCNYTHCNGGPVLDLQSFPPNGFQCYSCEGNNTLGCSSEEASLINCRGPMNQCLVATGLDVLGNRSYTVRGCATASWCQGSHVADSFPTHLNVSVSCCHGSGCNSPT

mouse uPAR on cells [2] = target: T2, mouse uPAR on cells (mouse, UniProt P35456 24-298); experiment: flow cytometry on EMT6 cells (express mouse uPAR), anti-His detection
T2 construct: whole, on cells; also called Ms-uPAR; mouse uPAR (CD87)
T2 sequence (looked up): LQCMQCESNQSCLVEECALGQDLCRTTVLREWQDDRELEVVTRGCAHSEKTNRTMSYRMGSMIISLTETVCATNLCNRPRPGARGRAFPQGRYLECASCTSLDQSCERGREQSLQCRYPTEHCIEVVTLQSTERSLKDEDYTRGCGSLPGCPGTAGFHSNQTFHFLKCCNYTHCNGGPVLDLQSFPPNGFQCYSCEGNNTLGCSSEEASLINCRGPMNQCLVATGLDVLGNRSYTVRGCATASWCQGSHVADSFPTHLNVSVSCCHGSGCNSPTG

mouse uPAR on cells [3] = target: T2, mouse uPAR on cells; experiment: flow cytometry on CT26 cells (express mouse uPAR), anti-His detection
[4] = target: T3, IL-2/IL-15 receptor on HH cells (human); experiment: cell-based or functional assay
T3 chain 1: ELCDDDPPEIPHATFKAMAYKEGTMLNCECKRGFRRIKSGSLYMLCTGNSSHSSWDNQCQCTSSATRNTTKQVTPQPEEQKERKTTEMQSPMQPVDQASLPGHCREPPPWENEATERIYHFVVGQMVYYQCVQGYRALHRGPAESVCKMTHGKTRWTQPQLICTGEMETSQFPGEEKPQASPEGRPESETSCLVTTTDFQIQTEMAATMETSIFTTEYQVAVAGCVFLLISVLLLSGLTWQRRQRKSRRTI
T3 chain 2: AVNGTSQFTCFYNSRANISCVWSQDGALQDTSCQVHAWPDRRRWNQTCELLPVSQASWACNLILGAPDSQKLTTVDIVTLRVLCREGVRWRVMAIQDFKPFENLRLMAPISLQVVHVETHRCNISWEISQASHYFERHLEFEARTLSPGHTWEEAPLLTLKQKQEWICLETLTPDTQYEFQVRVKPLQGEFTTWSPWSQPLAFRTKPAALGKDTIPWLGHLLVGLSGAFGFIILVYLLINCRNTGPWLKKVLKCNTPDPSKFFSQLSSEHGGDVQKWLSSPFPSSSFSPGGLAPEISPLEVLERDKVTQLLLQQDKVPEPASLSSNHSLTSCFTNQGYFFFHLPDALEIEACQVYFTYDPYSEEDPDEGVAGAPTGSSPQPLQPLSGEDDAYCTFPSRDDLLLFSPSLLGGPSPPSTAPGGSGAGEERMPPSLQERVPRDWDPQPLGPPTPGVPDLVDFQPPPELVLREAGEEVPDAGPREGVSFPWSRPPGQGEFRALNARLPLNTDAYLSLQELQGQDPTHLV
T3 chain 3: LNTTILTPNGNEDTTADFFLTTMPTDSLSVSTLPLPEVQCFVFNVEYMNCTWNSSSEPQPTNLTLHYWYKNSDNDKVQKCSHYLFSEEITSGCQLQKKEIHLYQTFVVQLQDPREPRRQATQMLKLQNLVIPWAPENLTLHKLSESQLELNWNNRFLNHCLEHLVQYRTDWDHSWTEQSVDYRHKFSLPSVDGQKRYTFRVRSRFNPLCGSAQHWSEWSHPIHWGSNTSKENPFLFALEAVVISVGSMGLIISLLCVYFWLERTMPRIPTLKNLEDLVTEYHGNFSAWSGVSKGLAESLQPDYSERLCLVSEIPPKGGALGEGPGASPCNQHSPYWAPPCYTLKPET

[5] = target: T1, Recombinant mouse uPAR-Fc (R&D Systems, …); experiment: SPR (Biacore), mouse uPAR-Fc captured on chip; Table 32 prints 0.15
[6] = target: human 4-1BB on 4-1BB effector cells (human, UniProt Q07011 24-255); experiment: cell-based or functional assay
biotinylated human uPAR [7] = target: T4, biotinylated human uPAR (human, UniProt Q03405 23-303, limits assumed, biotinylated (site not stated)); experiment: BLI (Octet) on biotinylated human uPAR; row 'None': no first antibody
[8] = target: T5, histidine-tagged human uPAR (Sino#10925-H08H) (human, UniProt Q03405 23-303); experiment: BLI (Octet), antibody on anti-mouse Fc sensor, uPAR in solution
T5 construct: also called uPAR-His

[9] = target: Human uPAR DII-DIII domain HisAvi Tag (human, biotinylated (site not stated)); experiment: BLI (Octet), biotinylated domain on SA sensor, antibody 200 nM
[10] = target: T6, human uPAR expressed on HEK293 cells (human, UniProt Q03405 23-305); experiment: flow cytometry, HEK293 cells expressing human uPAR, 100 nM uPA present
T6 construct: whole, on cells; also called Hu-uPAR

mouse uPAR on cells [11] = target: T2, mouse uPAR on cells; experiment: flow cytometry, HEK293 cells expressing mouse uPAR, 100 nM uPA present
biotinylated human uPAR [12] = target: T4, biotinylated human uPAR; experiment: BLI (Octet) competition on biotinylated human uPAR; competitor (first antibody): ATN-368 (ATN-658)
biotinylated human uPAR [13] = target: T4, biotinylated human uPAR; experiment: BLI (Octet) competition on biotinylated human uPAR; competitor (first antibody): M1
biotinylated human uPAR [14] = target: T4, biotinylated human uPAR; experiment: BLI (Octet) competition on biotinylated human uPAR; competitor (first antibody): M5
[15] = target: T5, histidine-tagged human uPAR …; experiment: BLI (Octet), uPAR on sensor, antibody in solution (avidity)
mouse uPAR on cells [16] = target: T2, mouse uPAR on cells; experiment: flow cytometry on 4T1 cells (express mouse uPAR), anti-His detection
mouse uPAR on cells [17] = target: T2, mouse uPAR on cells; experiment: flow cytometry on MC38 cells (express mouse uPAR), anti-His detection
[18] = target: Recombinant human uPAR his (R&D Systems, 807-UK-100/CF) (human, UniProt Q03405 23-303, biotinylated (sites not given)); experiment: SPR (Biacore), biotinylated human uPAR his on streptavidin chip
[19] = target: IL-2/IL-15 receptor on primary mouse splenocytes (mouse); experiment: cell-based or functional assay

Sequence of human 4-1BB on 4-1BB effector cells (Q07011 24-255): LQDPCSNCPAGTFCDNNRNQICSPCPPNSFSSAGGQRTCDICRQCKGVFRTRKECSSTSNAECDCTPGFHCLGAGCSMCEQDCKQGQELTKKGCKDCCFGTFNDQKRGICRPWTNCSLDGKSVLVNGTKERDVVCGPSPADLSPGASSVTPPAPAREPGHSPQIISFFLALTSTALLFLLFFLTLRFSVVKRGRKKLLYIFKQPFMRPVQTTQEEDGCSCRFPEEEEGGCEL

Kd [1]: 150 pM
koff [1]: 0.00032 s⁻¹
kon [1]: 2.2e+06 M⁻¹ s⁻¹
Kd [5]: 140 pM
B2: Mouse uPA-ATF His6 (ligand)
chain: GSVLGAPDESNCGCQNGGVCVSYKYFSRIRRCSCPRKFQGEHCEIDASKTCYHGNGDSYRGKANTDTKGRPCLAWNAPAVLQKPYNAHRPDAISLGLGKHNYCRNPDNQKRPWCYVQIGLRQFVQECMVHDCHHHHHH
notes: also called 104

EC50, luciferase 4-1BB Bioassay [6]: 100 pM
Emax (luciferase units), 4-1BB Bioassay [6]: 330000 luciferase units
B3: Linked human 4-1BBL Trimer: Human uPA-ATF (other)
chain: SNELHQVPSNCDCLNGGTCVSNKYFSNIHWCNCPKKFGGQHCEIDKSKTCYEGNGHFYRGKASTDTMGRPCLPWNSATVLQQTYHAHRSDALQLGLGKHNYCRNPDNRRRPWCYVQVGLKPLVQECMVHDCAGGSGGREGPELSPDDPAGLLDLRQGMFAQLVAQNVLLIDGPLSWYSDPGLAGVSLTGGLSYKEDTKELVVAKAGVYYVFFQLELRRVVAGEGSGSVSLALHLQPLRSAAGAAALALTVDLPPASSEARNSAFGFQGRLLHLSAGQRLGVHLHTEARARHAWQLTQGATVLGLFRVTPEIPAGLPSPRSEGSGREGPELSPDDPAGLLDLRQGMFAQLVAQNVLLIDGPLSWYSDPGLAGVSLTGGLSYKEDTKELVVAKAGVYYVFFQLELRRVVAGEGSGSVSLALHLQPLRSAAGAAALALTVDLPPASSEARNSAFGFQGRLLHLSAGQRLGVHLHTEARARHAWQLTQGATVLGLFRVTPEIPAGLPSPRSEGSGREGPELSPDDPAGLLDLRQGMFAQLVAQNVLLIDGPLSWYSDPGLAGVSLTGGLSYKEDTKELVVAKAGVYYVFFQLELRRVVAGEGSGSVSLALHLQPLRSAAGAAALALTVDLPPASSEARNSAFGFQGRLLHLSAGQRLGVHLHTEARARHAWQLTQGATVLGLFRVTPEIPAGLPSPRSE

Kd [1]: 190 pM
koff [1]: 0.00026 s⁻¹
kon [1]: 1.3e+06 M⁻¹ s⁻¹
EC50 (mouse uPAR on cells [16]): 1000 pM
EC50 (mouse uPAR on cells [2]): 410 pM
EC50 (mouse uPAR on cells [17]): 710 pM
pSTAT5 EC50, mouse NK cells [19]: 20 nM
pSTAT5 EC50, mouse Tregs [19]: 17 nM
pSTAT5 EC50, mouse memory CD8 T cells [19]: 27 nM
EC50 (mouse uPAR on cells [3]): 1300 pM
B6: Mouse cpIL-2:IL-2Ra:mouse uPA-ATF-His6 (other)
chain: SKSFQLEDAENFISNIRVTVVKLKGSDNTFECQFDDESATVVDFLRRWIAFCQSIISTSPQGGSSSTQQQQQHLEQLLMDLQELLSRMENYRNLKLPRMLTFKFYLPKQATELKDLQCLEDELGPLRHVLDLTQGSGGGSELCLYDPPEVPNATFKALSYKNGTILNCECKRGFRRLKELVYMRCLGNSWSSNCQCTSNSHDKSRKQVTAQLEHQKEQQTTTDMQKPTQSMHQENLTGHCREPPPWKHEDSKRIYHFVEGQSVHYECIPGYKALQRGPAISICKMKCGKTGWTQPQLTCVDGGSGGGSVLGAPDESNCGCQNGGVCVSYKYFSRIRRCSCPRKFQGEHCEIDASKTCYHGNGDSYRGKANTDTKGRPCLAWNAPAVLQKPYNAHRPDAISLGLGKHNYCRNPDNQKRPWCYVQIGLRQFVQECMVHDCHHHHHH
notes: also called 101

The next lines start with the binder.

B1: Human cpIL-2:IL-2Ra:Human uPA-ATF (N22Y, W30R)-His6 (other)
chain: SKNFHLRPRDLISNINVIVLELKGSETTFMCEYADETATIVEFLNRWITFSQSIISTLTGGSSSTKKTQLQLEHLLLDLQMILNGINNYKNPKLTRMLTFKFYMPKKATELKHLQCLEEELKPLEEVLNLAQGSGGGSELCDDDPPEIPHATFKAMAYKEGTMLNCECKRGFRRIKSGSLYMLCTGNSSHSSWDNQCQCTSSATRNTTKQVTPQPEEQKERKTTEMQSPMQPVDQASLPGHCREPPPWENEATERIYHFVVGQMVYYQCVQGYRALHRGPAESVCKMTHGKTRWTQPQLICTGGGSGGSNELHQVPSNCDCLNGGTCVSYKYFSNIHRCNCPKKFGGQHCEIDKSKTCYEGNGHFYRGKASTDTMGRPCLPWNSATVLQQTYHAHRSDALQLGLGKHNYCRNPDNRRRPWCYVQVGLKPLVQECMVHDCAHHHHHH
notes: also called 110
Kd [1]: 120 pM
koff [1]: 0.00023 s⁻¹
kon [1]: 1.9e+06 M⁻¹ s⁻¹
EC50 (mouse uPAR on cells [2]): 540 pM
EC50 (mouse uPAR on cells [3]): 1400 pM
pSTAT5 EC50, HH cells [4]: 1.6 nM

B4: M8 (antibody, V domains shown)
VH: QIQLVQSGPELKKPGETVKISCKASGNTFTDYGMNWVKQSPGKGLKWMGWINTNTGEPTYADDFKGRFAFSLETSASTAYLQINNLKNEDMATYFCAHYSFDYWGQGTTLTVSS
VL: DIQMTQSPASLSVSVGQTVTITCRTSENIYSNLAWYQQKPGKSPQLLVYAATNLADGVPSRFSGSGSGTQYSLKINSLQSEDFGSYYCQHFWGTPWTFGGGTKLEIK
notes: Mouse hybridoma antibody; also called anti-uPAR antibody M8; parental M8
response in competition assay (biotinylated human uPAR [7]): 0.284
Kd [8]: 1080 pM
koff [8]: 0.00063 s⁻¹
kon [8]: 584000 M⁻¹ s⁻¹
binding result [9]: binds
EC50 [10]: 540 pM
EC50 (mouse uPAR on cells [11]): 31400 pM
response in competition assay (biotinylated human uPAR [12]): 0.31
response in competition assay (biotinylated human uPAR [13]): 0.302
response in competition assay (biotinylated human uPAR [14]): 0.321
Kd [15]: < 1 pM
koff [15]: < 1e-07 s⁻¹
kon [15]: 311000 M⁻¹ s⁻¹

B5: Human uPA-ATF:His6 (ligand)
chain: SNELHQVPSNCDCLNGGTCVSNKYFSNIHWCNCPKKFGGQHCEIDKSKTCYEGNGHFYRGKASTDTMGRPCLPWNSATVLQQTYHAHRSDALQLGLGKHNYCRNPDNRRRPWCYVQVGLKPLVQECMVHDCAHHHHHH
notes: also called 103
EC50 (mouse uPAR on cells [16]): 220 pM
EC50 (mouse uPAR on cells [17]): 420 pM
EC50 (mouse uPAR on cells [3]): 1100 pM
Kd [18]: 240 pM
koff [18]: 0.00035 s⁻¹
kon [18]: 1.5e+06 M⁻¹ s⁻¹
